From patent publication US20230242620A1 (published 2023)

Columns and labels:
Experiment in all cases: SPR Biacore T100, 21-4-3 captured on anti-mouse IgG, 500 nM analyte
SEQ ID NO: 57 = molecular target: T1, SEQ ID NO: 57
T1 construct: no mutations
Experimental: (§1) Binding measurements were performed using a Biacore T100 using a CM5 T120416 sensor chip, with running buffer HBS-EP+, 25° C. […] The anti-mouse IgG used was a polyclonal rabbit anti-mouse IgG antibodies reacting with all IgG subclasses, IgA and IgM (GE Healthcare; Cat #BR-1008-38; Lot #10056316). Immobilisation of the anti-mouse IgG was performed using manual amine coupling using a 7 minute injection of EDC/NHS for activation and a 7 minute injection of 1M ethanolamine HCl pH 8.5 for deactivation (Biacore, amine coupling kit).

SEQ ID NO: 60 = molecular target: T2, SEQ ID NO: 60
T2 construct: no mutations
Experimental: as §1

SEQ ID NO: 40 = molecular target: T3, SEQ ID NO: 40
T3 construct: no mutations
Experimental: as §1

SEQ ID NO: 82 = molecular target: T4, SEQ ID NO: 82
T4 construct: P84A
Experimental: as §1

SEQ ID NO: 76 = molecular target: T5, SEQ ID NO: 76
T5 construct: no mutations
Experimental: as §1

SEQ ID NO: 84 = molecular target: T6, SEQ ID NO: 84
T6 construct: S112G
Experimental: as §1

SEQ ID NO: 37 = molecular target: T7, SEQ ID NO: 37
T7 construct: no mutations
Experimental: as §1

SEQ ID NO: 55 = molecular target: T8, SEQ ID NO: 55
T8 construct: no mutations
Experimental: as §1

SEQ ID NO: 63 = molecular target: T9, SEQ ID NO: 63
T9 construct: no mutations
Experimental: as §1

SEQ ID NO: 41 = molecular target: T10, SEQ ID NO: 41
T10 construct: no mutations
Experimental: as §1

SEQ ID NO: 75 = molecular target: T11, SEQ ID NO: 75
T11 construct: no mutations
Experimental: as §1

SEQ ID NO: 59 = molecular target: T12, SEQ ID NO: 59
T12 construct: no mutations
Experimental: as §1

SEQ ID NO: 65 = molecular target: T13, SEQ ID NO: 65
T13 construct: P14A
Experimental: as §1

SEQ ID NO: 42 = molecular target: T14, SEQ ID NO: 42
T14 construct: no mutations
Experimental: as §1

SEQ ID NO: 39 = molecular target: T15, SEQ ID NO: 39
T15 construct: no mutations
Experimental: as §1

SEQ ID NO: 89 = molecular target: T16, SEQ ID NO: 89
T16 construct: L11S, P14A, T110Q, S112G, S113G
Experimental: as §1

SEQ ID NO: 61 = molecular target: T17, SEQ ID NO: 61
T17 construct: no mutations
Experimental: as §1

SEQ ID NO: 49 = molecular target: T18, SEQ ID NO: 49
T18 construct: V5L, I23A, E44G, A49S, A68T, A74S, T78L, W79Y, K83R, T110Q, Q108L
Experimental: as §1

SEQ ID NO: 78 = molecular target: T19, SEQ ID NO: 78
T19 construct: Q13R
Experimental: as §1

SEQ ID NO: 68 = molecular target: T20, SEQ ID NO: 68
T20 construct: P14A, L108Q
Experimental: as §1

SEQ ID NO: 87 = molecular target: T21, SEQ ID NO: 87
T21 construct: L11S, S112G, S113G
Experimental: as §1

SEQ ID NO: 69 = molecular target: T22, SEQ ID NO: 69
T22 construct: L108Q
Experimental: as §1

SEQ ID NO: 52 = molecular target: T23, SEQ ID NO: 52
T23 construct: S112G
Experimental: as §1

SEQ ID NO: 86 = molecular target: T24, SEQ ID NO: 86
T24 construct: L11S, T110Q
Experimental: as §1

SEQ ID NO: 73 = molecular target: T25, SEQ ID NO: 73
T25 construct: S112G, S113G
Experimental: as §1

SEQ ID NO: 58 = molecular target: T26, SEQ ID NO: 58
T26 construct: no mutations
Experimental: as §1

SEQ ID NO: 67 = molecular target: T27, SEQ ID NO: 67
T27 construct: R83K
Experimental: as §1

SEQ ID NO: 74 = molecular target: T28, SEQ ID NO: 74
T28 construct: no mutations
Experimental: as §1

SEQ ID NO: 70 = molecular target: T29, SEQ ID NO: 70
T29 construct: T110Q
Experimental: as §1

SEQ ID NO: 62 = molecular target: T30, SEQ ID NO: 62
T30 construct: no mutations
Experimental: as §1

SEQ ID NO: 88 = molecular target: T31, SEQ ID NO: 88
T31 construct: L11S, T110Q
Experimental: as §1

SEQ ID NO: 47 = molecular target: T32, SEQ ID NO: 47
T32 construct: no mutations
Experimental: as §1

SEQ ID NO: 81 = molecular target: T33, SEQ ID NO: 81
T33 construct: L11V
Experimental: as §1

SEQ ID NO: 85 = molecular target: T34, SEQ ID NO: 85
T34 construct: L11S, T110Q, S112G, S113G
Experimental: as §1

SEQ ID NO: 38 = molecular target: T35, SEQ ID NO: 38
T35 construct: no mutations
Experimental: as §1

SEQ ID NO: 72 = molecular target: T36, SEQ ID NO: 72
T36 construct: S112G, S113G
Experimental: as §1

SEQ ID NO: 45 = molecular target: T37, SEQ ID NO: 45
T37 construct: P14A, P41T, S62F, S74A, S82bN, R83K, L108Q
Experimental: as §1

SEQ ID NO: 77 = molecular target: T38, SEQ ID NO: 77
T38 construct: no mutations
Experimental: as §1

SEQ ID NO: 80 = molecular target: T39, SEQ ID NO: 80
T39 construct: T110Q, S112G, S113G
Experimental: as §1

SEQ ID NO: 66 = molecular target: T40, SEQ ID NO: 66
T40 construct: L11S
Experimental: as §1

SEQ ID NO: 44 = molecular target: T41, SEQ ID NO: 44
T41 construct: no mutations
Experimental: as §1

SEQ ID NO: 71 = molecular target: T42, SEQ ID NO: 71
T42 construct: S113G
Experimental: as §1

SEQ ID NO: 43 = molecular target: T43, SEQ ID NO: 43
T43 construct: no mutations
Experimental: as §1

SEQ ID NO: 79 = molecular target: T44, SEQ ID NO: 79
T44 construct: no mutations
Experimental: as §1

SEQ ID NO: 64 = molecular target: T45, SEQ ID NO: 64
T45 construct: no mutations
Experimental: as §1

SEQ ID NO: 83 = molecular target: T46, SEQ ID NO: 83
T46 construct: T87A
Experimental: as §1

SEQ ID NO: 48 = molecular target: T47, SEQ ID NO: 48
T47 construct: no mutations
Experimental: as §1

T34 sequence (VHH, as listed by the source): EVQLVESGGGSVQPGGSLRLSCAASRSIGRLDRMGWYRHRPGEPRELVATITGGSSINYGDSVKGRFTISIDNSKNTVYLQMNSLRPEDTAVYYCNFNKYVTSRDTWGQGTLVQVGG
T37 sequence (VHH, as listed by the source): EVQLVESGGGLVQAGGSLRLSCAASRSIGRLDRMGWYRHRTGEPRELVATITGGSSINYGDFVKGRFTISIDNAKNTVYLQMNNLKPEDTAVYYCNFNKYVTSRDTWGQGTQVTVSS
T1 sequence (chain, as listed by the source): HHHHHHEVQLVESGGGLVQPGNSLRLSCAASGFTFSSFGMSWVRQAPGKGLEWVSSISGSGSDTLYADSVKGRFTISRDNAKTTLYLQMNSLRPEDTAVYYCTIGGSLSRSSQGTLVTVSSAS
T3 sequence (chain, as listed by the source): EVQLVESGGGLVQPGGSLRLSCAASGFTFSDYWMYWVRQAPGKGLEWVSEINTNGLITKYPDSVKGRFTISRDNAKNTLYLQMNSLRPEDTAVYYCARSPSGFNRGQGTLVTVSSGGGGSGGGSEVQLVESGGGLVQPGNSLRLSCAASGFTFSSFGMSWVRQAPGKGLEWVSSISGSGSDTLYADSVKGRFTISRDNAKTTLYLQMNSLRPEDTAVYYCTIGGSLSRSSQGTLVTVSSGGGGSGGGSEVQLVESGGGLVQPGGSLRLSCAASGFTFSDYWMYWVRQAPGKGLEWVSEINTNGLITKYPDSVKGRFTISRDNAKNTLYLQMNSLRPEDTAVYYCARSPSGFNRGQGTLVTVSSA
T16 sequence (VHH, as listed by the source): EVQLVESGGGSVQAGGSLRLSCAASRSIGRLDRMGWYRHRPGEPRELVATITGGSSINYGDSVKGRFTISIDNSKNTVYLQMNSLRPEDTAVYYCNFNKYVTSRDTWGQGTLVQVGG
T14 sequence (chain, as listed by the source): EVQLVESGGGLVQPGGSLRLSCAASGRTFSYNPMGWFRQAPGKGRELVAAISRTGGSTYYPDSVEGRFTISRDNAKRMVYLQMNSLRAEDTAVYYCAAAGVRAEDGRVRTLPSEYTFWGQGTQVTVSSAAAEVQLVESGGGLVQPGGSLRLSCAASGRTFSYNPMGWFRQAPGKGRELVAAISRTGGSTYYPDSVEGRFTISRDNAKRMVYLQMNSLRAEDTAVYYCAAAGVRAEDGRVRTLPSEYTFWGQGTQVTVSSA
T9 sequence (chain, as listed by the source): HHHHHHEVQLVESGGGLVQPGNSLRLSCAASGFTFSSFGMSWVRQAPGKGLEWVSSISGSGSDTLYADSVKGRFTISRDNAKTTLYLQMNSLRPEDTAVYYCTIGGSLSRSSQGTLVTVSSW
T23 sequence (chain, as listed by the source): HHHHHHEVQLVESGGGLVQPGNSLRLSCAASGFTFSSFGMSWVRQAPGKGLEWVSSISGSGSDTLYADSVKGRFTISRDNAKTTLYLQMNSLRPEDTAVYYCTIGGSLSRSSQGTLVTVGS
T47 sequence (VHH, as listed by the source): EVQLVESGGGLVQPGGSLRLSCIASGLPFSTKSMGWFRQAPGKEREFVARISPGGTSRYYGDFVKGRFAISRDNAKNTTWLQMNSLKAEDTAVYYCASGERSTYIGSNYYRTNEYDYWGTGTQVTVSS
T22 sequence (VHH, as listed by the source): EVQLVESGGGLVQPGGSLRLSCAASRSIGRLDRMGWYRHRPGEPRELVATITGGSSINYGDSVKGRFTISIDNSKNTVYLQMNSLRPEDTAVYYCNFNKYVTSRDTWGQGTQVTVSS
T19 sequence (VHH, as listed by the source): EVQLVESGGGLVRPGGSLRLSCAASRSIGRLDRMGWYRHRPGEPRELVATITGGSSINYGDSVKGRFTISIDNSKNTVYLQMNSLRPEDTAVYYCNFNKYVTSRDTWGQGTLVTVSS
T35 sequence (chain, as listed by the source): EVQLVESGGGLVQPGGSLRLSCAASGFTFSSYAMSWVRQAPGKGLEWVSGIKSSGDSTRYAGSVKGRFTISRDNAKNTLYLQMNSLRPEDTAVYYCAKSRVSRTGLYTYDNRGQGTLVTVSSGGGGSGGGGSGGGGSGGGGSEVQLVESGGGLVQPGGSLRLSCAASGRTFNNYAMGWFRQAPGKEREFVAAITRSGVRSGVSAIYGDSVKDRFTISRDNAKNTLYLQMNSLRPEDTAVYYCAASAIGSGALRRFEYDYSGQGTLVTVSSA
T10 sequence (chain, as listed by the source): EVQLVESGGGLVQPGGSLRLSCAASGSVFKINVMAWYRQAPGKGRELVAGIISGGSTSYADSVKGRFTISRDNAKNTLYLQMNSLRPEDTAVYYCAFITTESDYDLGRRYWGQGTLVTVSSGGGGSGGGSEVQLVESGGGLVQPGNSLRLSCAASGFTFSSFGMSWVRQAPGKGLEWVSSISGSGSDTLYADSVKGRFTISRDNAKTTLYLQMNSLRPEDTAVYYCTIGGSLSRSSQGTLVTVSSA
T18 sequence (VHH, as listed by the source): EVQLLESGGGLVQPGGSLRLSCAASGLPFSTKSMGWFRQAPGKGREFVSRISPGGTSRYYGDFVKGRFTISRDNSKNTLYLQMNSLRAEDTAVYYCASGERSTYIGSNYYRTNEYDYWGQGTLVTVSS
T21 sequence (VHH, as listed by the source): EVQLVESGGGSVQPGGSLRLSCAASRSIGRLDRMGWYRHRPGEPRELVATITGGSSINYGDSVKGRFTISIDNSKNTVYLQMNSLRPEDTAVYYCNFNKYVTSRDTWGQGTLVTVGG
T15 sequence (chain, as listed by the source): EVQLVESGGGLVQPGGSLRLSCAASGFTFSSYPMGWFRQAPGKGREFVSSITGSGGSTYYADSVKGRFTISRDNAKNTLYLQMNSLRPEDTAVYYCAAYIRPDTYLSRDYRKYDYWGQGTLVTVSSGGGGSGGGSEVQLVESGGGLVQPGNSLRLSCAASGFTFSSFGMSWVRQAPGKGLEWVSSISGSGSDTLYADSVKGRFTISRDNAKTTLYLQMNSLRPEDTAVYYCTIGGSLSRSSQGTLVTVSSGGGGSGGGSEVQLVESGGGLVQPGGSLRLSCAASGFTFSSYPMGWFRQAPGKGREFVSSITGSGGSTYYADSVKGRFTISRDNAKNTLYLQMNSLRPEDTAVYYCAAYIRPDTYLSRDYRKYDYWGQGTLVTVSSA
T7 sequence (chain, as listed by the source): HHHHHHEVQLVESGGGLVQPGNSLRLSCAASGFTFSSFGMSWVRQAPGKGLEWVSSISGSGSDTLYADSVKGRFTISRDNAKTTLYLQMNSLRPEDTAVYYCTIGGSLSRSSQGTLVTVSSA
T39 sequence (VHH, as listed by the source): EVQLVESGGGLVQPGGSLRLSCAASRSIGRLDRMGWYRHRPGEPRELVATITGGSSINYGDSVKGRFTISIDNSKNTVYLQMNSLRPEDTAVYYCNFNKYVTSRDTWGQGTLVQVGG
T41 sequence (chain, as listed by the source): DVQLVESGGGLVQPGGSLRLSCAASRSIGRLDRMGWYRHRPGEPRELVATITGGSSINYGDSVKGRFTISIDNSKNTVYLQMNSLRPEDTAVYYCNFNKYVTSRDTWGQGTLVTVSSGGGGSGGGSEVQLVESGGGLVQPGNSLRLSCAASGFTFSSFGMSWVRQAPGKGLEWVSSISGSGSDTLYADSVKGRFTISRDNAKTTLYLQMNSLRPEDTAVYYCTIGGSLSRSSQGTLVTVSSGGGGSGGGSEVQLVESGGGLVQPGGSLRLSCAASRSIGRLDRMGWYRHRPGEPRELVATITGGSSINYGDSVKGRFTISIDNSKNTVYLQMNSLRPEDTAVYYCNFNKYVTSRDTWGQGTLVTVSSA
T13 sequence (VHH, as listed by the source): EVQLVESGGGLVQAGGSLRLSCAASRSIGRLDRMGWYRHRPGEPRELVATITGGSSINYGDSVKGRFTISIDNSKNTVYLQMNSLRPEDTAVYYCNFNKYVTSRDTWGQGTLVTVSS
T6 sequence (VHH, as listed by the source): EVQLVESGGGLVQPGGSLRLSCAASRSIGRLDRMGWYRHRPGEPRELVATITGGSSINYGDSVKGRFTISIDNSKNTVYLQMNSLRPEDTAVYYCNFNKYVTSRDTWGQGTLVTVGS
T2 sequence (chain, as listed by the source): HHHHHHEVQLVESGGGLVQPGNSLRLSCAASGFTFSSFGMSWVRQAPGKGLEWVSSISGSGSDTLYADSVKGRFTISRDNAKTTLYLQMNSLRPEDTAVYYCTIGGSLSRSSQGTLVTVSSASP
T46 sequence (VHH, as listed by the source): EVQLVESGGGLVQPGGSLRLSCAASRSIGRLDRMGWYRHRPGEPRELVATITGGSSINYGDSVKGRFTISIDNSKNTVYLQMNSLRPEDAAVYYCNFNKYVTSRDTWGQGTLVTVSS
T43 sequence (chain, as listed by the source): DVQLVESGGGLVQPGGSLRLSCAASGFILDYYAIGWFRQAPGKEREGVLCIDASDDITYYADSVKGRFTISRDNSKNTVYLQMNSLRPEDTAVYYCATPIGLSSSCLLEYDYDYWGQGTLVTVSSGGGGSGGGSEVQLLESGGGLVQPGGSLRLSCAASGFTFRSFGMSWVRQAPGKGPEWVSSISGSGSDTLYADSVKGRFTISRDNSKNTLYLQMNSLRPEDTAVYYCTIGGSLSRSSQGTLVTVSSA
T33 sequence (VHH, as listed by the source): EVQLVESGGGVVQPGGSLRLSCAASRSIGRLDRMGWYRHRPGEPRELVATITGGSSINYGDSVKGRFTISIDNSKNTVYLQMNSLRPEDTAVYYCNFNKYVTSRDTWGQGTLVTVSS
T4 sequence (VHH, as listed by the source): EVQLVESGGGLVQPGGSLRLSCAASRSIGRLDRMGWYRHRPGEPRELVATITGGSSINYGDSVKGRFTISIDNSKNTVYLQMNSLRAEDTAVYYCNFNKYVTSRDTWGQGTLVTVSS

B1: monoclonal antibody 21-4-3 (antibody, V domains shown)
VH: QIQLVQSGPELKKPGETVKISCKASGYTFTAYSMHWVKQAPGKGLKWMGWINTVTGEPAYADDFKGRFAFSLETSASTAYLQISSLKNEDTATYFCTRGLIHFYYWGQGTTLTVSS
VL: DIQMTQTPSSLSASLGGRVTITCKASQDIHNFISWYQHKPGKVPRLIIHDTSTLQPGIPSRFSGSGSGRDYSFSITNLEPEDIATYYCLHYDNLLRSFGGGTKLEIKR
notes: also called mAb21-4-3; mAb 21-4-3
How did the “binding level as % of reference sequence (=100%)” value (shortened to “binding level as %”) (SEQ ID NO: 57) turn out when B1 was run?
Its value is 6%.

What about the “binding level as %” value (SEQ ID NO: 60) of the same binder?
Its value is 6%.

And the “binding level as %” value (SEQ ID NO: 40)?
The value was 1%.

And the “binding level as %” value (SEQ ID NO: 82)?
Its value is 56%.

And the “binding level as %” value (SEQ ID NO: 76)?
The value was 2%.

What about the “binding level as %” value (SEQ ID NO: 84) of the same binder?
Its value is 91%.

And the “binding level as %” value (SEQ ID NO: 37)?
The value was 7%.

And the “binding level as %” value (SEQ ID NO: 55)?
The value was 6%.

What about the “binding level as %” value (SEQ ID NO: 63) of the same binder?
The value was 3%.

And the “binding level as %” value (SEQ ID NO: 41)?
The value was 7%.

What about the “binding level as %” value (SEQ ID NO: 75) of the same binder?
Its value is 1%.

And the “binding level as %” value (SEQ ID NO: 59)?
The value was 6%.

And the “binding level as %” value (SEQ ID NO: 65)?
Its value is 23%.

What about the “binding level as %” value (SEQ ID NO: 42) of the same binder?
Its value is 0%.

What about the “binding level as %” value (SEQ ID NO: 39) of the same binder?
The value was 0%.

And the “binding level as %” value (SEQ ID NO: 89)?
Its value is 2%.

And the “binding level as %” value (SEQ ID NO: 61)?
Its value is 6%.

What about the “binding level as %” value (SEQ ID NO: 49) of the same binder?
The value was 4%.

What about the “binding level as %” value (SEQ ID NO: 78) of the same binder?
The value was 1%.

What about the “binding level as %” value (SEQ ID NO: 68) of the same binder?
The value was 26%.

And the “binding level as %” value (SEQ ID NO: 87)?
Its value is 41%.

And the “binding level as %” value (SEQ ID NO: 69)?
The value was 106%.

What about the “binding level as %” value (SEQ ID NO: 52) of the same binder?
The value was 100%.

And the “binding level as %” value (SEQ ID NO: 86)?
The value was 64%.

What about the “binding level as %” value (SEQ ID NO: 73) of the same binder?
Its value is 1%.

What about the “binding level as %” value (SEQ ID NO: 58) of the same binder?
Its value is 6%.

And the “binding level as %” value (SEQ ID NO: 67)?
The value was 101%.

What about the “binding level as %” value (SEQ ID NO: 74) of the same binder?
The value was 1%.

What about the “binding level as %” value (SEQ ID NO: 70) of the same binder?
The value was 106%.

And the “binding level as %” value (SEQ ID NO: 62)?
The value was 6%.

What about the “binding level as %” value (SEQ ID NO: 88) of the same binder?
The value was 1%.

And the “binding level as %” value (SEQ ID NO: 47)?
Its value is 4%.

What about the “binding level as %” value (SEQ ID NO: 81) of the same binder?
Its value is 75%.

What about the “binding level as %” value (SEQ ID NO: 85) of the same binder?
The value was 32%.

And the “binding level as %” value (SEQ ID NO: 38)?
Its value is 0%.

And the “binding level as %” value (SEQ ID NO: 72)?
The value was 45%.

And the “binding level as %” value (SEQ ID NO: 45)?
Its value is 22%.

And the “binding level as %” value (SEQ ID NO: 77)?
Its value is 1%.

What about the “binding level as %” value (SEQ ID NO: 80) of the same binder?
Its value is 51%.

What about the “binding level as %” value (SEQ ID NO: 66) of the same binder?
Its value is 48%.

What about the “binding level as %” value (SEQ ID NO: 44) of the same binder?
Its value is 1%.

And the “binding level as %” value (SEQ ID NO: 71)?
Its value is 44%.

What about the “binding level as %” value (SEQ ID NO: 43) of the same binder?
The value was 3%.

And the “binding level as %” value (SEQ ID NO: 79)?
The value was 2%.

What about the “binding level as %” value (SEQ ID NO: 64) of the same binder?
Its value is 6%.

And the “binding level as %” value (SEQ ID NO: 83)?
Its value is 79%.

What about the “binding level as %” value (SEQ ID NO: 48) of the same binder?
The value was 3%.
